These results are taken from patent publication US20260078171A1.

Chain of VYD224 (antibody) (VH): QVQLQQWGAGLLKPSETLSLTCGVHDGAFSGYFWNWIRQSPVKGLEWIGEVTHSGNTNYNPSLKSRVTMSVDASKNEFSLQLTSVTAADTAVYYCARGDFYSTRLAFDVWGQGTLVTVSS
Chain of VYD224 (antibody) (VL): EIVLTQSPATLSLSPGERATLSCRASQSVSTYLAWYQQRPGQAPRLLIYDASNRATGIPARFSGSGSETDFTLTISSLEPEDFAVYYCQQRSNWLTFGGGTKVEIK
Chain of VYD222 (antibody) (VH): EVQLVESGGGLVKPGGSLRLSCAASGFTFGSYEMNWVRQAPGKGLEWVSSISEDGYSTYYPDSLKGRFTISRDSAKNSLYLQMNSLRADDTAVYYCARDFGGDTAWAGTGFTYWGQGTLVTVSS
Chain of VYD222 (antibody) (VL): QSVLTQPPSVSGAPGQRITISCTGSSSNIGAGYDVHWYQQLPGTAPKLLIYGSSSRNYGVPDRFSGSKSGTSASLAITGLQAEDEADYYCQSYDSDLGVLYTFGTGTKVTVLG
Chain of ADI-58125 (antibody) (VH): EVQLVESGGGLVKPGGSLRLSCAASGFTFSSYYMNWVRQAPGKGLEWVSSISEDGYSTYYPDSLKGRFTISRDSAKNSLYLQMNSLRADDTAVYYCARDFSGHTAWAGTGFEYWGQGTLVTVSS
Chain of ADI-58125 (antibody) (VL): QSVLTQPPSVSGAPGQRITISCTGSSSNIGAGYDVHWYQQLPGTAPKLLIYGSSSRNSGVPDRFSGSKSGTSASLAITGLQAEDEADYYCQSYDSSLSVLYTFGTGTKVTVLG
Chain of VYD223 (antibody) (VH): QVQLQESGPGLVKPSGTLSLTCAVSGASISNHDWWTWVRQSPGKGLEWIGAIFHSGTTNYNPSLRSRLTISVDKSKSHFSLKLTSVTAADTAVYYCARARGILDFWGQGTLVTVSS
Chain of VYD223 (antibody) (VL): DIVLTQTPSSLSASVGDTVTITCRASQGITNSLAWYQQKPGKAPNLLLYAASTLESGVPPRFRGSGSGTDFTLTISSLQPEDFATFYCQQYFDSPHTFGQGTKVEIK

In this experiment the target is SARS-CoV-2 Wild-type (D614G) spike glycoprotein (SARS-CoV-2) (UniProt P0DTC2). In words: cell-based or functional assay.
In the case of VYD222 (antibody), the IC50, authentic virus neutralization was 0.033 µg/mL; the IC50, lentivirus-based pseudovirus neutralization turned out to be 0.03 µg/mL; the IC90, authentic virus neutralization came to 0.193 µg/mL.
In turn, VYD223 (antibody) had an IC50, authentic virus neutralization of 0.012 µg/mL and an IC90, authentic virus neutralization of 0.014 µg/mL.
Taken in the same sequence, the figures for LY-CoV1404 (antibody) were 0.021 µg/mL and 0.09 µg/mL.
Taken in the same sequence, the figures for ADI-58125 (antibody) were 0.052 µg/mL and 0.192 µg/mL.
Consider VYD224 (antibody), for which the IC50, authentic virus neutralization worked out at 0.01 µg/mL; the IC50, lentivirus-based pseudovirus neutralization was 0.03 µg/mL; the IC90, authentic virus neutralization came to 0.037 µg/mL.
The substance CoV2-2130 (antibody) showed an IC50, authentic virus neutralization of 0.016 µg/mL and an IC90, authentic virus neutralization of 0.074 µg/mL.
